{"source": "patent US20230035659A1", "about": "“Compositions and Methods for TTR Gene Editing and Treating ATTR Amyloidosis Comprising a Corticosteroid or Use Thereof” (Intellia Therapeutics, Inc., priority 2019, published 2023)", "molecules": {"B1": {"name": "G000481: TTR sgRNA modified sequence, Human, SEQ ID NO: 88; guide sequence of CR003345 (nucleic acid)", "guide": "UCUAGAACUUUGACCAUCAGGUUUUAGAGCUAGAAAUAGCAAGUUAAAAUAAGGCUAGUCCGUUAUCAACUUGAAAAAGUGGCACCGAGUCGGUGCUUUU", "modifications": "sugars from the 5' end m3 r25 m12 r28 m32, backbone not given here; further chemistry not fully specified"}, "B2": {"name": "G000567: TTR sgRNA modified sequence, Human, SEQ ID NO: 109; guide sequence of CR003352 (nucleic acid)", "guide": "mG*mA*mA*rArGrGrCrUrGrCrUrGrArUrGrArCrArCrCrGrUrUrUrUrArGrAmGmCmUmAmGmAmAmAmUmAmGmCrArArGrUrUrArArArArUrArArGrGrCrUrArGrUrCrCrGrUrUrArUrCrAmAmCmUmUmGmAmAmAmAmAmGmUmGmGmCmAmCmCmGmAmGmUmCmGmGmUmGmCmU*mU*mU*mU"}, "B3": {"name": "G000572: TTR sgRNA modified sequence, Human, SEQ ID NO: 113; guide sequence of CR003385 (nucleic acid)", "guide": "mC*mC*mC*rCrUrArCrUrCrCrUrArUrUrCrCrArCrCrArGrUrUrUrUrArGrAmGmCmUmAmGmAmAmAmUmAmGmCrArArGrUrUrArArArArUrArArGrGrCrUrArGrUrCrCrGrUrUrArUrCrAmAmCmUmUmGmAmAmAmAmAmGmUmGmGmCmAmCmCmGmAmGmUmCmGmGmUmGmCmU*mU*mU*mU"}, "B4": {"name": "G000568: TTR sgRNA modified sequence, Human, SEQ ID NO: 110; guide sequence of CR003391 (nucleic acid)", "guide": "mG*mG*mC*rUrGrUrCrGrUrCrArCrCrArArUrCrCrCrArGrUrUrUrUrArGrAmGmCmUmAmGmAmAmAmUmAmGmCrArArGrUrUrArArArArUrArArGrGrCrUrArGrUrCrCrGrUrUrArUrCrAmAmCmUmUmGmAmAmAmAmAmGmUmGmGmCmAmCmCmGmAmGmUmCmGmGmUmGmCmU*mU*mU*mU"}}, "note": "Strand notation (5' to 3'): a small letter for the sugar, then the base; units joined by * are phosphorothioate-linked, units joined directly phosphodiester-linked; [ ] holds rarer units or linkages, { } end groups; capitals alone tell only the bases. m = 2'-O-methyl; r = 2'-OH (RNA)", "data": [{"tested_on": "potential off-target genomic sites", "assay": "Off-target analysis by oligo insertion based assay in primary human hepatocytes (sgRNAs)", "assay_type": "cell-based", "details": "100 ng Cas9 mRNA, 25 nM sgRNA, 12.5 nM donor oligo, 48 h", "values": [{"molecule": "B1", "# Sites in PHH (off-target integration sites detected)": 0}, {"molecule": "B2", "# Sites in PHH (off-target integration sites detected)": 0}, {"molecule": "B3", "# Sites in PHH (off-target integration sites detected)": 2}, {"molecule": "B4", "# Sites in PHH (off-target integration sites detected)": 11}]}, {"tested_on": "TTR mRNA", "assay": "TTR mRNA knockdown (quantitative PCR) in primary human hepatocytes treated with LNPs", "assay_type": "cell-based", "details": "PHH; LNP dose 300 ng mRNA cargo; gRNA:mRNA 1:2; 96 h; biological triplicates; vs untreated control", "method": "In one experiment, PHH were cultured and treated with LNPs comprising Cas9 mRNA (SEQ ID NO:1) and a gRNA of interest (See FIG. 29, Table 36), as described in Example 4. The LNPs were prepared using the cross-flow procedure described above and purified and concentrated using PD-10 columns and Amicon centrifugal filter units, respectively. The LNPs were formulated with an N:P ratio of 6.0 and contained Lipid A, Cholesterol, DSPC, and PEG2k-DMG in a 50:38:9:2 molar ratio, respectively. The LNPs comprised a gRNA:mRNA ratio of 1:2, and the cells were treated at a dose of 300 ng (with respect to the amount of mRNA cargo delivered).\n(§1) Ninety-six (96) hours following LNP treatment (with biological triplicates for each condition), mRNA was purified from PHH cells using the Dynabeads mRNA DIRECT Kit (ThermoFisher Scientific) according to the manufacturer's protocol. Reverse Transcription (RT) was performed with Maxima reverse transcriptase (ThermoFisher Scientific) and a poly-dT primer. The resulting cDNA was purified with Ampure XP Beads (Agencourt). For Quantitative PCR, 2% of the purified cDNA was amplified with Taqman Fast Advanced Mastermix and 3 Taqman probe sets, TTR (Assay ID: Hs00174914_m1), GAPDH (Assay ID: Hs02786624_g1), and PPIB (Assay ID: Hs00168719_m1). The assays were run on the QuantStudio 7 Flex Real Time PCR System according to the manufacturer's instructions (Life Technologies). Relative expression of TTR mRNA was calculated by normalizing to the endogenous controls (GAPDH and PPIB) individually, and then averaged.\nThe groups in FIG. 29 and Table 36 are identified by the gRNA ID used in each LNP preparation.\nIn a separate experiment, TTR mRNA knockdown was evaluated following treatment with LNPs comprising G000480, G000486, and G000502. The LNPs were formulated and PHH were cultured and treated with the LNPs, each as described in the experiment above in this Example with the exception that the cells were treated at a dose of 100 ng (with respect to the amount of mRNA cargo delivered).\nas §1, with “(single treatment” for “(with biological triplicates”, “the High Capacity cDNA Reverse Transcription Kit” for “Maxima reverse transcriptase”, “according to the manufacturer's instructions.” for “and a poly-dT primer. The resulting cDNA was purified with Ampure XP Beads (Agencourt).”, “the” for “the purified”\nThe groups in FIG. 30 and Table 37 are identified by the gRNA ID used in each LNP preparation.", "units": {"Avg % Knockdown (TTR mRNA)": "%"}, "values": [{"molecule": "B1", "Avg % Knockdown (TTR mRNA)": 91.39}, {"molecule": "B2", "Avg % Knockdown (TTR mRNA)": 90.89}, {"molecule": "B3", "Avg % Knockdown (TTR mRNA)": 55.92}, {"molecule": "B4", "Avg % Knockdown (TTR mRNA)": 53.44}]}]}
